Measurements published in patent US20230322857A1, “RECOMBINANTLY ENGINEERED POLYPEPTIDES CAPABLE OF RECYCLING NONCANONICAL COFACTORS” (The Regents of the University of California, priority 2022, published 2023).

System: E. coli SHuffle strain
Assay: Recapitulation of growth restoration with TS-PTDH variants in SHuffle strain
Type: cell-based, Escherichia coli
Conditions: spotted onto agar selection plates
Protocol: Selection of TS-PTDH Library. A total of 50 μL pre-made SHuffle/pLZ311 or SHuffle/pLZ312 electro-competent cells were transformed with 2 μL TS-PTDH A155N-E175-A176-L208 NNK library DNA (pLZ316) via electroporation as described above. After rescue in SOC media for 1 h, cultures were combined in 10 mL 2×YT with 10 g/L glucose, 0.5% arabinose, kanamycin and ampicillin. 0.2, or 1 μL of culture was immediately taken from the culture and plated on an 2×YT agar plates with kanamycin and ampicillin. The plate was incubated at 37° C. overnight, and the number of colonies formed was counted to estimate the library size. The liquid cultures were incubated at 37° C. with shaking for 10 h. Cells (1 mL) were washed 3 times and re-suspended in M9 Buffer. Targeted serial dilutions of cells were prepared in M9 buffer and 5 μL aliquots were dispensed in series on an agar plate of M9 selection media containing 0.5 mM diamide, 5 or 1 g/L yeast extract, 10 g/L glucose, 0.5% arabinose, 0.5 mM IPTG, 10 g/L sodium phosphite, kanamycin, ampicillin, and 5 mM NMN^+. Selection plates were incubated at 37° C., and photographs were taken to document growth progress. The independent transformants sampled was calculated as 2.4×10^6 and 2.5×10^6 colonies when plated on 5 and 1 g/L yeast extract, respectively. TS-PTDH and the template of the library, TS-PTDH A155N, were cultured in the same conditions as controls. The colonies were numbered by the order of appearance. The selected cells were re-streaked on fresh agar plate with identical media and incubated until single colonies formed on the plate. Variants that cannot forma single colony may be false positives. After extracting the plasmids from each re-streaked colony, the chosen TS-PTDH variants were amplified and moved into the pQElac vector containing a N-terminal 6×His tag for protein purification and characterization. […] 2 μL of a serial dilution of cells were deposited onto a growth selection plate and grown at 37° C.

B1: LY-13: phosphite dehydrogenase variant with A155N, E175A, A176F (SEQ ID NO: 6) (protein)
chain: MLPKLVITHRVHEEILQLLAPHCELITNQTDSTLTREEILRRCRDAQAMMAFMPDRVDADFLQACPELRVIGCALKGFDNFDVDACTARGVWLTFVPDLLTVPTAELAIGLAVGLGRHLRAADAFVRSGKFRGWQPRFYGTGLDNATVGFLGMGNIGLAMADRLQGWGATLQYHAFKALDTQTEQRLGLRQVACSELFASSDFILLALPLNADTLHLVNAELLALVRPGALLVNPCRGSVVDEAAVLAALERGQLGGYAADVFEMEDWARADRPQQIDPALLAHPNTLFTPHIGSAVRAVRLEIERCAAQNILQALAGERPINAVNRLPKANPAAD
- growth restoration, co-expression with NMNH-specific Gor Ortho: markedly improved growth restoration
- growth restoration, co-expression with NMNH-specific Gor Ortho (listed as TS-PTDH LY-13): improved growth compared to TS-PTDH A155N
